Source: paper PMC10119312, “Structural insights into RNase J that plays an essential role in Mycobacterium tuberculosis RNA metabolism” (Nature Communications, 2023)

Target: the molecule itself
Experiment: SEC

B1: Mycobacterium tuberculosis RNase J, full-length wild type (enzyme)
chain: MDVDLPPPGPLTSGGLRVTALGGINEIGRNMTVFEHLGRLLIIDCGVLFPGHDEPGVDLILPDMRHVEDRLDDIEALVLTHGHEDHIGAIPFLLKLRPDIPVVGSKFTLALVAEKCREYRITPVFVEVREGQSTRHGVFECEYFAVNHSTPDALAIAVYTGAGTILHTGDIKFDQLPPDGRPTDLPGMSRLGDTGVDLLLCDSTNAEIPGVGPSESEVGPTLHRLIRGADGRVIVACFASNVDRVQQIIDAAVALGRRVSFVGRSMVRNMRVARQLGFLRVADSDLIDIAAAETMAPDQVVLITTGTQGEPMSALSRMSRGEHRSITLTAGDLIVLSSSLIPGNEEAVFGVIDALSKIGARVVTNAQARVHVSGHAYAGELLFLYNGVRPRNVMPVHGTWRMLRANAKLAASTGVPQESILLAENGVSVDLVAGKASISGAVPVGKMFVDGLIAGDVGDITLGERLILSSGFVAVTVVVRRGTGQPLAAPHLHSRGFSEDPKALEPAVRKVEAELESLVAANVTDPIRIAQGVRRTVGKWVGETYRRQPMIVPTVIEV
notes: also called Mtb-RNase J; WT; not shown: 6xHis-sumo, N-terminal, cleaved
With B1 the “stoichiometry N” value was 2.
